Reference: publication PMC7959842, “Deregulation of Factor H by Factor H-Related Protein 1 Depends on Sialylation of Host Surfaces” (Frontiers in Immunology, 2021)

Key:
[1] = biological target: C3b (UniProt P01024); assay: SPR; AP C3 convertase formation: ~6,000 RU C3b amine-coupled on a CMD500M chip; FB (600 nM) + FD (100 nM) injected alone or mixed with analyte (9.6 uM); signal of the analyte alone subtracted; 25 C, PBS 0.005% Tween20, 1 mM MgCl2
[2] = biological target: C3b (UniProt P01024); assay: SPR; C3b immobilised in two ways: biotin coupling (~1,500 RU on a streptavidin SAP chip) and amine coupling (~7,250 RU on a CMD500M chip); analytes flowed (FH18-20 constructs 0.16-40 or 0.63-40 uM, FHR-1 constructs 0.04-10 uM); 25 C, PBS 0.005% Tween20, 25 ul/min; 1:1 steady-state affinity fit; the printed ranges span both ways of immobilisation

| decrease of the AP C3 convertase signal (FB + FD on C3b) with the analyte co-injected at 9.6 uM [1] | Kd [2] | Substance |
| --- | --- | --- |
| 50% |  | FHR-1 (factor H-related protein 1, FHR-1*B, wild-type) (from UniProt Q03591 19-330) (natural protein) |
| 50% | 1400 to 1500 nM | FHR-1(SV) (from UniProt Q03591 19-330) (natural protein) |
